Results from paper PMC10942602.

Tests used:
GFP-Nrxn3α(25b+) (rat) [1] = assay: immunostaining of cells or tissue; co-culture (2 days) of HEK293 cells secreting myc-tagged C1ql2 or C1ql2.K262E with primary hippocampal neurons transfected with GFP-Nrxn3α(25b+); fixed, stained for myc and GFP; area of the masked HEK293 cell covered by GFP-Nrxn3α(25b+)-positive neuronal profiles; 25 cells per condition and experiment, N=3
GFP-Nrxn3α(25b+) (rat) [2] = molecular target: GFP-Nrxn3α(25b+) (rat)

6xHis-myc-tagged C1ql2, sequence (Q8CFR0 22-287): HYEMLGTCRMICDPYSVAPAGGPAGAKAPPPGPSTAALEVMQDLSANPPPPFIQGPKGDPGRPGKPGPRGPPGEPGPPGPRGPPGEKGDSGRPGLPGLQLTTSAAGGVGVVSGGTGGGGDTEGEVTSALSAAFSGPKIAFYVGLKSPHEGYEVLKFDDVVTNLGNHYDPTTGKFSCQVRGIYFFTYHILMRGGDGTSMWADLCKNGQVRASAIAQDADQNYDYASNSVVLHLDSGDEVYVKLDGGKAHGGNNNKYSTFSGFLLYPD
GFP-Nrxn3α(25b+) (rat), sequence (Q07310 28-1578): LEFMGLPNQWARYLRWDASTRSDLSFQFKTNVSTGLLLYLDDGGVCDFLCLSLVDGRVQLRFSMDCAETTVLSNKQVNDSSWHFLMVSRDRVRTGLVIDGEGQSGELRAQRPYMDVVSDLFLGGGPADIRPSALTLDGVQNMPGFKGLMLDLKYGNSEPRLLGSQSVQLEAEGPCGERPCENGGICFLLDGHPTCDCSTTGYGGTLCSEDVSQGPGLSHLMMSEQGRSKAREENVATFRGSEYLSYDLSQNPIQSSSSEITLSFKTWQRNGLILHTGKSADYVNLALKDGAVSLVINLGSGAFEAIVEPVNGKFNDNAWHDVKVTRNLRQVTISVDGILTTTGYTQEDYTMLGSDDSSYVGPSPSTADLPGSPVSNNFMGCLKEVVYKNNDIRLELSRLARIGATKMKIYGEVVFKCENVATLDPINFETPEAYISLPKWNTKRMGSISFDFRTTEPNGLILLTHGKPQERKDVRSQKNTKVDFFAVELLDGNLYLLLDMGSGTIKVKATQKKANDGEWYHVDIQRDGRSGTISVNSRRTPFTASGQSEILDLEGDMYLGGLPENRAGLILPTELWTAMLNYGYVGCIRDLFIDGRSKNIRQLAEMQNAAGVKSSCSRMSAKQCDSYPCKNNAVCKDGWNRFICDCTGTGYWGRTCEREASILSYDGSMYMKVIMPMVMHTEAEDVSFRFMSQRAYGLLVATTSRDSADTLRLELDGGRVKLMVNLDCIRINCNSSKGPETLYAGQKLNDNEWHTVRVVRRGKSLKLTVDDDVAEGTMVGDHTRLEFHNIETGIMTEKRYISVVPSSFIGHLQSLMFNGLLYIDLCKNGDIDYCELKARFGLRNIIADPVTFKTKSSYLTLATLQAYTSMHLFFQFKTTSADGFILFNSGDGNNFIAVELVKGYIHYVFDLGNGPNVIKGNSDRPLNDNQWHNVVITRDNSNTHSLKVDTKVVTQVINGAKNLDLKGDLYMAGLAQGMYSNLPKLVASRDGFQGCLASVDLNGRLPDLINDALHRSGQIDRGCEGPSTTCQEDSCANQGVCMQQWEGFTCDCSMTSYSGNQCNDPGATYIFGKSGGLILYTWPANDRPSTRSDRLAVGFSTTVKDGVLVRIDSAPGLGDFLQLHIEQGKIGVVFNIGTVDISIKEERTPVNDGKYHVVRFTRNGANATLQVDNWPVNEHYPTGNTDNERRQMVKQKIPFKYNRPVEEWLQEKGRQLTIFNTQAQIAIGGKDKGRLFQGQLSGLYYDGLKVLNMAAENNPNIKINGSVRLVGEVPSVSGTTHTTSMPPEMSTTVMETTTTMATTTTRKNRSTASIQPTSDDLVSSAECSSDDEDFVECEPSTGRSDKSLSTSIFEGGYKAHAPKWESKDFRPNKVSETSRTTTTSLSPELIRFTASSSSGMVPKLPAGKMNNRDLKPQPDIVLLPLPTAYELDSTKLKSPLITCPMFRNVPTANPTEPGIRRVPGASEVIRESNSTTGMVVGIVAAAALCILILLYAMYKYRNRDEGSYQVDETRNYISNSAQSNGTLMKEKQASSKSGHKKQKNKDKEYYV

vGlut1 accumulation in GFP-Nrxn3α(25b+)-expressing neurons contacting HEK293 cells expressing C1ql2.K262E (area of the HEK293 cell covered by vGlut1) (GFP-Nrxn3α(25b+) (rat) [2]) | Substance | surface area of HEK293 cells covered by GFP-Nrxn3α(25b+)-positive neuronal profiles (GFP-Nrxn3α(25b+) (rat) [1])
 | 6xHis-myc-tagged C1ql2 (from UniProt Q8CFR0 22-287) (natural protein) | 40
16.9 | 6xHis-myc-tagged C1ql2.K262E (from UniProt Q8CFR0 22-287) (natural protein) | 
